The numbers were not newly measured in publication PMC8141935, which cites them from elsewhere.

A word on the Kd: it is the equilibrium constant for the complex coming apart.

The data set concerns the target GABAA receptor α3 subunit intracellular loop (UniProt P34903).

gephyrin, sequence (Q9NQX3 whole entry): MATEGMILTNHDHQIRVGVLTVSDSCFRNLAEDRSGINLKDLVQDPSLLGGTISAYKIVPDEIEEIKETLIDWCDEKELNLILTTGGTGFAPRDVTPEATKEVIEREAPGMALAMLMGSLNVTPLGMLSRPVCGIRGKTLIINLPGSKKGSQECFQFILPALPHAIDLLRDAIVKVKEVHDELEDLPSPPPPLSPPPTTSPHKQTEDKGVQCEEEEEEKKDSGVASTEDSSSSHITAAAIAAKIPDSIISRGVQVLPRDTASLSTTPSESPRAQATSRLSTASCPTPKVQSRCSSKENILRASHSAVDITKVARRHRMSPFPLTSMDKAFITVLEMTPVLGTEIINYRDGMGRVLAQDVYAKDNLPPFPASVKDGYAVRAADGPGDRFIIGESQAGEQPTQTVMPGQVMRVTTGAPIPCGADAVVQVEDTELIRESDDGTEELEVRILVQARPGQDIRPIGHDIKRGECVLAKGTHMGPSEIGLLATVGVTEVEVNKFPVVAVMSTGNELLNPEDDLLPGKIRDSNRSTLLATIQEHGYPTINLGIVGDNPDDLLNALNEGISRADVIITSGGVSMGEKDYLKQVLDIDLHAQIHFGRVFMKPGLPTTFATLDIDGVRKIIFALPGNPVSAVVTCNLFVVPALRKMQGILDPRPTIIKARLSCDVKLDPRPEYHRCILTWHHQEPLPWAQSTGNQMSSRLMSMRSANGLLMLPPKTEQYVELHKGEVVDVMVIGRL
GABAA receptor α3 subunit intracellular loop, sequence (P34903 361-457): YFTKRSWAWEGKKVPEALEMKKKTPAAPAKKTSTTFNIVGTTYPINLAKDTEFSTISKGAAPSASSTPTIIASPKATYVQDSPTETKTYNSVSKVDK

Consider gephyrin (from UniProt Q9NQX3), for which the Kd was 5.3 µM.
